Laboratory results reported in publication PMC9332313, “Folding and Binding Mechanisms of the SH2 Domain from Crkl” (Biomolecules, 2022).
Square brackets hold non-standard residues; d marks the D form. Ends that are not written are not given here. * marks the point of attachment. pY = N[C@@H](Cc1ccc(OP(=O)(O)O)cc1)C(=O)O; Dansyl = CN(C)c1cccc2c(S(=O)(=O)*)cccc12

Legend:
Details in all cases: both partners purified
[1] = biological target: T1, SH2 domain of Crkl protein (residues 1-111), wild type (UniProt P46109 1-111); assay: stopped-flow fluorescence kinetics (FRET); dansyl-Pax112-123 constant at 2 μM mixed with Crkl-SH2 2 to 10 μM (pseudo-first-order, kon); koff by displacement of the preincubated 2 µM complex with excess non-dansylated Pax112-123 (30 μM); 283 K; 50 mM TrisHCl pH 9.0, 0.5 M NaCl
T1 construct: Crkl adaptor protein, SH2 domain, residues 1-111; Subcloned in pET28b+; all experiments were done on the N-terminally His-tagged protein; also called Crkl-SH2; Crkl SH2 domain; source: E. coli BL21 (DE3), purified (HisTrap nickel column, desalting); not shown: His tag, N-terminal, kept
T1 sequence (P46109 1-111): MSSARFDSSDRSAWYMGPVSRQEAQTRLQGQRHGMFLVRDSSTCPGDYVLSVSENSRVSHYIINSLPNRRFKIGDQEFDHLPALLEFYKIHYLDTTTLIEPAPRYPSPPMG

[2] = biological target: T2, SH2 domain of Crkl protein (residues 1-111), H80A variant (UniProt P46109 1-111, H80A); assay: as above
T2 construct: Crkl adaptor protein, SH2 domain, residues 1-111, His80 replaced by alanine; Site-directed mutant of m1 (QuikChange); source: E. coli BL21 (DE3), purified (HisTrap nickel column, desalting); not shown: His tag, N-terminal, kept
T2 sequence (P46109 1-111 H80A): as the sequence (P46109 1-111) above, with H80A counted along it

[3] = biological target: T3, SH2 domain of Crkl protein (residues 1-111), H33A variant (UniProt P46109 1-111, H33A); assay: as above
T3 construct: Crkl adaptor protein, SH2 domain, residues 1-111, His33 replaced by alanine; Site-directed mutant of m1 (QuikChange); source: E. coli BL21 (DE3), purified (HisTrap nickel column, desalting); not shown: His tag, N-terminal, kept
T3 sequence (P46109 1-111 H33A): as the sequence (P46109 1-111) above, with H33A counted along it

[4] = biological target: T4, SH2 domain of Crkl protein (residues 1-111), H91A variant (UniProt P46109 1-111, H91A); assay: stopped-flow fluorescence kinetics (FRET); dansyl-Pax112-123 constant at 2 μM mixed with Crkl-SH2 2 to 10 μM (pseudo-first-order, kon); koff by displacement of the preincubated 2 µM complex with excess non-dansylated Pax112-123 (30 μM); 283 K; 50 mM sodium-HEPES pH 7.5, 0.5 M NaCl
T4 construct: Crkl adaptor protein, SH2 domain, residues 1-111, His91 replaced by alanine; Site-directed mutant of m1 (QuikChange); source: E. coli BL21 (DE3), purified (HisTrap nickel column, desalting); not shown: His tag, N-terminal, kept
T4 sequence (P46109 1-111 H91A): as the sequence (P46109 1-111) above, with H91A counted along it

[5] = biological target: T1, SH2 domain of Crkl protein (residues …); assay: as above
[6] = biological target: T2, SH2 domain of Crkl protein (residues …); assay: as above
[7] = biological target: T3, SH2 domain of Crkl protein (residues …); assay: as above
[8] = biological target: T4, SH2 domain of Crkl protein (residues …); assay: stopped-flow fluorescence kinetics (FRET); dansyl-Pax112-123 constant at 2 μM mixed with Crkl-SH2 2 to 10 μM (pseudo-first-order, kon); koff by displacement of the preincubated 2 µM complex with excess non-dansylated Pax112-123 (30 μM); 283 K; 50 mM BisTRIS pH 6.8, 0.5 M NaCl
[9] = biological target: T2, SH2 domain of Crkl protein (residues …); assay: as above

B1: dansylated Pax_(112–123) peptide (Dans-GEEEHV-pY-SFPNK) (peptide)
peptide: Dansyl-GEEEHV[pY]SFPNK
notes: The dansyl group is the FRET acceptor of Trp14 of the SH2 domain; source: synthetic peptide, bought: GenScript
Kd [1]: 2500 ± 200 nM
koff [1]: 36.1 ± 0.6 s⁻¹
kon [1]: 1.41e+07 ± 900000 M⁻¹ s⁻¹
Kd [2]: 2800 ± 300 nM
koff [2]: 34 ± 2.3 s⁻¹
kon [2]: 1.2e+07 ± 900000 M⁻¹ s⁻¹
Kd [3]: 4200 ± 500 nM
koff [3]: 44.7 ± 4 s⁻¹
kon [3]: 1.06e+07 ± 1e+06 M⁻¹ s⁻¹
Kd [4]: 2600 ± 100 nM
koff [4]: 25.9 ± 0.3 s⁻¹
kon [4]: 1e+07 ± 500000 M⁻¹ s⁻¹
Kd [5]: 2800 ± 400 nM
koff [5]: 28.6 ± 0.5 s⁻¹
kon [5]: 1.04e+07 ± 1.4e+06 M⁻¹ s⁻¹
Kd [6]: 2000 ± 200 nM
koff [6]: 27.8 ± 2.3 s⁻¹
kon [6]: 1.36e+07 ± 1.1e+06 M⁻¹ s⁻¹
Kd [7]: 2300 ± 500 nM
koff [7]: 24.6 ± 3.2 s⁻¹
kon [7]: 1.08e+07 ± 1.9e+06 M⁻¹ s⁻¹
Kd [8]: 3000 ± 100 nM
koff [8]: 23.4 ± 0.4 s⁻¹
kon [8]: 7.8e+06 ± 300000 M⁻¹ s⁻¹
Kd [9]: 3100 ± 200 nM
koff [9]: 21.6 ± 0.4 s⁻¹
kon [9]: 7.1e+06 ± 400000 M⁻¹ s⁻¹
